# Assay results from patent US20260167699A1 (Chugai, published 2026).
# B1: GpH7-A5/GpH7-B3 variant S298_02A/GpL16-k0 (antibody, human IgG1, kappa)
# heavy 1: not shown
# heavy 2: not shown
# light: DIVMTQSPLSLPVTPGEPASISCQASESLVHSNRNTYLHWYLQKPGQSPQLLIYKVSNRFSGVPDRFSGSGSGTDFTLKISRVEAEDVGVYYCSQNTHVPPTFGQGTKVEIERTVAAPSVFIFPPSDEQLKSGTASVVCLLNNFYPREAKVQWKVDNALQSGNSQESVTEQDSKDSTYSLSSTLTLSKADYEKHKVYACEVTHQGLSSPVTKSFNRGEC
# notes: copies: 1 + 1 + 2
# B2: GpH7-A5/GpH7-B3 variant S298_03V/GpL16-k0 (antibody, human IgG1, kappa)
# heavy 1: not shown
# heavy 2: not shown
# light: B1 light
# notes: copies: 1 + 1 + 2
# B3: GpH7-A5/GpH7-B3 variant S298_04F/GpL16-k0 (antibody, human IgG1, kappa)
# heavy 1: not shown
# heavy 2: not shown
# light: B1 light
# notes: copies: 1 + 1 + 2
# B4: GpH7-A5/GpH7-B3 variant S298_06M/GpL16-k0 (antibody, human IgG1, kappa)
# heavy 1: not shown
# heavy 2: not shown
# light: B1 light
# notes: copies: 1 + 1 + 2
# B5: GpH7-A5/GpH7-B3 variant S298_07I/GpL16-k0 (antibody, human IgG1, kappa)
# heavy 1: not shown
# heavy 2: not shown
# light: B1 light
# notes: copies: 1 + 1 + 2
# B6: GpH7-A5/GpH7-B3 variant S298_08L/GpL16-k0 (antibody, human IgG1, kappa)
# heavy 1: not shown
# heavy 2: not shown
# light: B1 light
# notes: copies: 1 + 1 + 2
# B7: GpH7-A5/GpH7-B3 variant S298_09D/GpL16-k0 (antibody, human IgG1, kappa)
# heavy 1: not shown
# heavy 2: not shown
# light: B1 light
# notes: copies: 1 + 1 + 2
# B8: GpH7-A5/GpH7-B3 variant S298_11K/GpL16-k0 (antibody, human IgG1, kappa)
# heavy 1: not shown
# heavy 2: not shown
# light: B1 light
# notes: copies: 1 + 1 + 2
# B9: GpH7-A5/GpH7-B3 variant S298_12R/GpL16-k0 (antibody, human IgG1, kappa)
# heavy 1: not shown
# heavy 2: not shown
# light: B1 light
# notes: copies: 1 + 1 + 2
# B10: GpH7-A5/GpH7-B3 variant S298_14T/GpL16-k0 (antibody, human IgG1, kappa)
# heavy 1: not shown
# heavy 2: not shown
# light: B1 light
# notes: copies: 1 + 1 + 2
# B11: GpH7-A5/GpH7-B3 variant S298_15Y/GpL16-k0 (antibody, human IgG1, kappa)
# heavy 1: not shown
# heavy 2: not shown
# light: B1 light
# notes: copies: 1 + 1 + 2
# B12: GpH7-A5/GpH7-B3 variant S298_16H/GpL16-k0 (antibody, human IgG1, kappa)
# heavy 1: not shown
# heavy 2: not shown
# light: B1 light
# notes: copies: 1 + 1 + 2
# B13: GpH7-A5/GpH7-B3 variant S298_18N/GpL16-k0 (antibody, human IgG1, kappa)
# heavy 1: not shown
# heavy 2: not shown
# light: B1 light
# notes: copies: 1 + 1 + 2
# B14: GpH7-A5/GpH7-B3 variant S298_19Q/GpL16-k0 (antibody, human IgG1, kappa)
# heavy 1: not shown
# heavy 2: not shown
# light: B1 light
# notes: copies: 1 + 1 + 2
# B15: GpH7-A5/GpH7-B3 variant S324_01G/GpL16-k0 (antibody, human IgG1, kappa)
# heavy 1: not shown
# heavy 2: not shown
# light: B1 light
# notes: copies: 1 + 1 + 2
# B16: GpH7-A5/GpH7-B3 variant S324_02A/GpL16-k0 (antibody, human IgG1, kappa)
# heavy 1: not shown
# heavy 2: not shown
# light: B1 light
# notes: copies: 1 + 1 + 2
# B17: GpH7-A5/GpH7-B3 variant S324_03V/GpL16-k0 (antibody, human IgG1, kappa)
# heavy 1: not shown
# heavy 2: not shown
# light: B1 light
# notes: copies: 1 + 1 + 2
# B18: GpH7-A5/GpH7-B3 variant S324_04F/GpL16-k0 (antibody, human IgG1, kappa)
# heavy 1: not shown
# heavy 2: not shown
# light: B1 light
# notes: copies: 1 + 1 + 2
# B19: GpH7-A5/GpH7-B3 variant S324_05P/GpL16-k0 (antibody, human IgG1, kappa)
# heavy 1: not shown
# heavy 2: not shown
# light: B1 light
# notes: copies: 1 + 1 + 2
# B20: GpH7-A5/GpH7-B3 variant S324_06M/GpL16-k0 (antibody, human IgG1, kappa)
# heavy 1: not shown
# heavy 2: not shown
# light: B1 light
# notes: copies: 1 + 1 + 2
# B21: GpH7-A5/GpH7-B3 variant S324_07I/GpL16-k0 (antibody, human IgG1, kappa)
# heavy 1: not shown
# heavy 2: not shown
# light: B1 light
# notes: copies: 1 + 1 + 2
# B22: GpH7-A5/GpH7-B3 variant S324_08L/GpL16-k0 (antibody, human IgG1, kappa)
# heavy 1: not shown
# heavy 2: not shown
# light: B1 light
# notes: copies: 1 + 1 + 2
# B23: GpH7-A5/GpH7-B3 variant S324_09D/GpL16-k0 (antibody, human IgG1, kappa)
# heavy 1: not shown
# heavy 2: not shown
# light: B1 light
# notes: copies: 1 + 1 + 2
# B24: GpH7-A5/GpH7-B3 variant S324_10E/GpL16-k0 (antibody, human IgG1, kappa)
# heavy 1: not shown
# heavy 2: not shown
# light: B1 light
# notes: copies: 1 + 1 + 2
# B25: GpH7-A5/GpH7-B3 variant S324_11K/GpL16-k0 (antibody, human IgG1, kappa)
# heavy 1: not shown
# heavy 2: not shown
# light: B1 light
# notes: copies: 1 + 1 + 2
# B26: GpH7-A5/GpH7-B3 variant S324_12R/GpL16-k0 (antibody, human IgG1, kappa)
# heavy 1: not shown
# heavy 2: not shown
# light: B1 light
# notes: copies: 1 + 1 + 2
# B27: GpH7-A5/GpH7-B3 variant S324_14T/GpL16-k0 (antibody, human IgG1, kappa)
# heavy 1: not shown
# heavy 2: not shown
# light: B1 light
# notes: copies: 1 + 1 + 2
# B28: GpH7-A5/GpH7-B3 variant S324_15Y/GpL16-k0 (antibody, human IgG1, kappa)
# heavy 1: not shown
# heavy 2: not shown
# light: B1 light
# notes: copies: 1 + 1 + 2
# B29: GpH7-A5/GpH7-B3 variant S324_16H/GpL16-k0 (antibody, human IgG1, kappa)
# heavy 1: not shown
# heavy 2: not shown
# light: B1 light
# notes: copies: 1 + 1 + 2
# B30: GpH7-A5/GpH7-B3 variant S324_18N/GpL16-k0 (antibody, human IgG1, kappa)
# heavy 1: not shown
# heavy 2: not shown
# light: B1 light
# notes: copies: 1 + 1 + 2
# B31: GpH7-A5/GpH7-B3 variant S324_19Q/GpL16-k0 (antibody, human IgG1, kappa)
# heavy 1: not shown
# heavy 2: not shown
# light: B1 light
# notes: copies: 1 + 1 + 2
# Biological target: T1, FcγRIIIa (human, UniProt P08637 17-208)
# T1 construct: extracellular domain; also called 3a; FcγRIIIa extracellular domain
# T1 sequence (P08637 other isoform, or with tags, fused parts or gaps): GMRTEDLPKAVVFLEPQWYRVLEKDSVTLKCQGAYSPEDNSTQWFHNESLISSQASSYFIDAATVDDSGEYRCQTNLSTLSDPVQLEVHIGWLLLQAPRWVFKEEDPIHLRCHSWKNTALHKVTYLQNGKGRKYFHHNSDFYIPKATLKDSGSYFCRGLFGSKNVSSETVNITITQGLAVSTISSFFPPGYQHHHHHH
# Assay: SPR (Biacore);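 note: antibody variants captured on an SPR sensor chip, with FcγRIIIa passed over as analyte in HBS-EP+ buffer at 25 °C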
row,Binder,He/Con 3a
1,B1,151 % of GpH7-A5/GpH7-B3/GpL16-k0
2,B2,103 % of GpH7-A5/GpH7-B3/GpL16-k0
3,B3,77.6 % of GpH7-A5/GpH7-B3/GpL16-k0
4,B4,87.2 % of GpH7-A5/GpH7-B3/GpL16-k0
5,B5,90.7 % of GpH7-A5/GpH7-B3/GpL16-k0
6,B6,69.2 % of GpH7-A5/GpH7-B3/GpL16-k0
7,B7,62.7 % of GpH7-A5/GpH7-B3/GpL16-k0
8,B8,50 % of GpH7-A5/GpH7-B3/GpL16-k0
9,B9,52.1 % of GpH7-A5/GpH7-B3/GpL16-k0
10,B10,106 % of GpH7-A5/GpH7-B3/GpL16-k0
11,B11,80.6 % of GpH7-A5/GpH7-B3/GpL16-k0
12,B12,71.9 % of GpH7-A5/GpH7-B3/GpL16-k0
13,B13,51.4 % of GpH7-A5/GpH7-B3/GpL16-k0
14,B14,70.6 % of GpH7-A5/GpH7-B3/GpL16-k0
15,B15,114 % of GpH7-A5/GpH7-B3/GpL16-k0
16,B16,113 % of GpH7-A5/GpH7-B3/GpL16-k0

row,Binder,He/Con 3a
1,B17,101 % of GpH7-A5/GpH7-B3/GpL16-k0
2,B18,99.3 % of GpH7-A5/GpH7-B3/GpL16-k0
3,B19,72.3 % of GpH7-A5/GpH7-B3/GpL16-k0
4,B20,124 % of GpH7-A5/GpH7-B3/GpL16-k0
5,B21,101 % of GpH7-A5/GpH7-B3/GpL16-k0
6,B22,95.5 % of GpH7-A5/GpH7-B3/GpL16-k0
7,B23,110 % of GpH7-A5/GpH7-B3/GpL16-k0
8,B24,108 % of GpH7-A5/GpH7-B3/GpL16-k0
9,B25,90.2 % of GpH7-A5/GpH7-B3/GpL16-k0
10,B26,98.1 % of GpH7-A5/GpH7-B3/GpL16-k0
11,B27,112 % of GpH7-A5/GpH7-B3/GpL16-k0
12,B28,110 % of GpH7-A5/GpH7-B3/GpL16-k0
13,B29,113 % of GpH7-A5/GpH7-B3/GpL16-k0
14,B30,103 % of GpH7-A5/GpH7-B3/GpL16-k0
15,B31,96.2 % of GpH7-A5/GpH7-B3/GpL16-k0
